According to patent US12460006B2, “Antibodies against integrin alpha 11 beta 1” (Momenta Pharmaceuticals, Inc., priority 2019, dated 2025):
Positions count from the first letter of the chain named.

T1: α11β1 I Domain (Homo sapiens, UniProt Q9UKX5)
T1 sequence (Q9UKX5 164-345 limits assumed): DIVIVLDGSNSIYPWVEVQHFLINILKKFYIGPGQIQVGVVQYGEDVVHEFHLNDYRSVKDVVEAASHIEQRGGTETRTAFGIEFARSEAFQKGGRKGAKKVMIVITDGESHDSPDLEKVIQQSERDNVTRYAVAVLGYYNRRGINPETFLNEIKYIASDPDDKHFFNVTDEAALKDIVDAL

B1: 1994_01_C07: fully human anti-α11β1 mAb (phage display); HCDR3 SEQ ID NO: 267, LCDR3 SEQ ID NO: 271 (antibody, V domains shown)
VH: QVQLVQSGAEVKKPGASVKVSCKASGYTFTSYGISWVRQAPGQGLEWMGWISAYNGNTNYAQKLQGRVTMTTDTSTSTAYMELRSLRSDDTAAYYCARVTGITGTTIDPWGQGTMVTVSS
VL: DIQMTQSPSSLSASVGDRVTITCRASQSISSYLNWYQQKPGKAPKLLIYDASSLESGVPSRFSGSGSGTEFTLTISSLQPDDFAVYYCQQYNNWPQTFGQGTKVEIK
B2: 1994_01_D12: fully human anti-α11β1 mAb (phage display); HCDR3 SEQ ID NO: 267, LCDR3 SEQ ID NO: 334 (antibody, V domains shown)
VH: B1 VH with A16S, D73N, A93V, M115L
VL: DIQMTQSPSSLSASVGDRVTITCRASQSISSYLNWYRQKPGKAPKLLIYAASSLQSGVPSRFSGSGSGTDFTLTISSLQPEDAATYYCQQYDSQSGTFGQGTKLEIK

Columns and labels:
[1] = test system: CHO-K1 cells expressing human α11; experiment: Cell adhesion inhibition (xCelligence), type I collagen; assay type: cell-based; details: CHO-K1 hu α11 cells; read-out: IC50 of blocking cell adhesion to type I collagen
Procedure: 0.6×10^6 cells/mL were incubated with each antibody at a range of concentrations for 20 minutes at 37° C. E-Plate VIEW 96 PET plate coated with 100 ng/mL type I collagen or PBS overnight at room temperature was blocked in 3% BSA for 1 house at room temperature. After washing the plate with PBS, cell and antibody mixture was added to the wells and the plate was places into an xCelligence machine. Cell adhesion was recorded over 6 hours. The time point of maximum cell adhesion was used for comparison relative to control.
A CHO-K1 hu α11 cell line was used to assess the ability of mAbs to block α11β1-mediated binding to type I collagen. […] In the “Untreated” condition, cells were plated on type I collagen but no antibody was added and in the “Uncoated” condition, cells were seeded onto BSA-coated wells containing no type I collagen. Statistics were performed using one-way ANOVA followed by Dunnett's multiple comparisons test. […] Therefore, it is possible that these mAbs bind on an α11β1 domain that keeps the integrin in a low or intermediate affinity state. […] Nine human mAbs were also tested for their ability to inhibit the binding of human CHO-α11 cells to type I collagen.

[2] = test system: CHO cell lines expressing α11; experiment: Collagen gel contraction assay; assay type: cell-based, human; details: vs untreated
Procedure: 24-well plates were blocked with 2% BSA in PBS overnight at 37° C. The following day, the plates were washed 3 times with PBS before being used in the assay. Human CHO cell lines expressing α11 were harvested and resuspended at 1.25×10^6 in ExpiCHO Expression Medium (Gibco™ Cat #A2910002). The collagen gel solution was prepared by diluting 3 mg/mL stock collagen type I (Gibco™ Collagen I Rat Protein, Tail Cat #A1048301) to 1 mg/mL in the media containing the CHO cells. Sodium hydroxide was added to the solution to neutralize the pH and 400 μL of the collagen solution was added to each well of the 24-well plates. For the wells where the antibodies were included in the collagen gel solution, CHO cells were prepared at 2.5×10^6 and the antibodies were prepared at 2× final concentration in ExpiCHO media. The cells and antibodies were then combined 1:1 before the addition of the stock collagen type 1. The gels were allowed to polymerize for 60 minutes at 37° C. Antibodies were added to the ExpiCHO media, which was then layered on top of the polymerized gel (400 μL/well). The gels were incubated for 6 days at 37° C. before gel contraction was quantified. Images of each well were analyzed using Image J and gel contraction was determined as a percentage of the initial gel area.
Selected exemplary antibodies were tested for the ability to inhibit cell-mediated 3D gel contraction because this ability is directly linked to the functionality of the exemplary antibodies.

[3] = molecular target: T1, α11β1 I Domain; experiment: SPR binding to α11β1 I Domain; details: SPR data
Procedure: (§1) The affinity of antibodies for human α11β1 was measured by surface plasmon resonance assay (SPR). Affinity was measured at pH 7.6 and 25° C. with a Biacore T200 instrument. Anti-HIS antibody was immobilized on the SPR sensor surface using EDC/NHS covalent attachment. HIS-tagged human α11β1 was captured on the sensor surface and a single-cycle kinetics assay was used. Increasing concentrations of test antibody were injected in series over the sensor-bound α11β1. Dissociation was monitored for 1000 seconds. A sensor surface with only anti-HIS antibody and a series of blank injections were used to double-reference subtract the data. A 1:1 Langmuir model was fit to the data to estimate the kinetic association and dissociation constants. The affinity (equilibrium dissociation constant) of the interaction was calculated by dividing the kinetic dissociation constant by the kinetic association constant. Between injection cycles α11β1 and bound antibody were removed with an injection of 10 mM glycine at pH 1.5.
(§2) The binding affinity of antibodies for the α11β1 Headpiece and α11β1 I Domain as measured by SPR is shown in FIG. 10A and FIG. 10B, respectively.

[4] = test system: α11β1 Headpiece; experiment: SPR binding to α11β1 Headpiece; parameters: species or system human; details: SPR data
Procedure: as §1, §2

Molecule	IC50 [1]	inhibition of CHO-hu α11-mediated collagen gel contraction [2]	binding to the I domain of α11β1 [3]	binding to the headpiece domain of α11β1 [4]
B1	3.3 nM	inhibited CHO-hu α11-mediated collagen gel contraction	do not bind	do not bind
B2		inhibited CHO-hu α11-mediated collagen gel contraction		
